Data from patent US20230391845A1, “GLP-1, GIP AND GLUCAGON RECEPTOR TRIPLE AGONISTS” (priority 2020, published 2023).
Where no end group is shown, it is not given here. [ ]: non-standard residue; d: D form. Aib = CC(C)(N)C(=O)O

T1: human glucose-dependent insulinotropic polypeptide receptor (human, UniProt P48546 22-466)
T1 sequence (looked up): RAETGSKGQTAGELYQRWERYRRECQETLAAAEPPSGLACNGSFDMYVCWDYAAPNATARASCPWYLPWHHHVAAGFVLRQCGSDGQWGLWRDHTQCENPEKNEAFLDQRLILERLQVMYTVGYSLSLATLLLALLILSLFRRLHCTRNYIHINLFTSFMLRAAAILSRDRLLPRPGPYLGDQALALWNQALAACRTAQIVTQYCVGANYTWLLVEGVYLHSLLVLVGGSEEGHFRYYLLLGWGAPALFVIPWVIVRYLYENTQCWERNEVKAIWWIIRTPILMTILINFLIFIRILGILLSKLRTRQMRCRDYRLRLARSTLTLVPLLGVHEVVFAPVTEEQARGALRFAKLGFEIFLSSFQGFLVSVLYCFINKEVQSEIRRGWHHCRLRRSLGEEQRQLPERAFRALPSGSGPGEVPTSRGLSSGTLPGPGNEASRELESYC


Tests used:
Experiment in all cases: cell-based or functional assay
[1] = biological target: human glucagon-like peptide 1 receptor (human, UniProt P43220 24-463)
[2] = biological target: human glucagon receptor (human, UniProt P47871 26-477)
Sequence of human glucagon receptor (P47871 26-477): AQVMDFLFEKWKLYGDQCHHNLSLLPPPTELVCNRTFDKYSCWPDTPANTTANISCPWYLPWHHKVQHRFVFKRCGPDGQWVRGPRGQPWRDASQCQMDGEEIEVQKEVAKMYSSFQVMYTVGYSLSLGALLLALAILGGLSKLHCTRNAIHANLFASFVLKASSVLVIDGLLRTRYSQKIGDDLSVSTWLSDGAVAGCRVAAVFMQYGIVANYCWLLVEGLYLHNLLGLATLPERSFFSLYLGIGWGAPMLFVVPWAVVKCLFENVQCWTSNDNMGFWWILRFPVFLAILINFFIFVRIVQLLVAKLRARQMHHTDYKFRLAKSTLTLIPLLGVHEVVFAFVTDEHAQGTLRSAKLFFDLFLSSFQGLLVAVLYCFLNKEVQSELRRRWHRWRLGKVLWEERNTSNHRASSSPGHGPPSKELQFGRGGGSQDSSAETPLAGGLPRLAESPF

[3] = biological target: T1, human glucose-dependent insulinotropic …

| Binder | hGLP-1R CRE Luc EC50 (pM) [1] | hGcgR CRE Luc EC50 (pM) [2] | hGIPR CRE Luc EC50 (pM) [3] |
| --- | --- | --- | --- |
| H[Aib]HGTFTSDYSIYLEKRAA[Aib]EFVQWLLEGGPSSGAPPPS-NH2 (not fully specified (residue 16); printed as H-Aib-HGTFTSDYSIYLE-K[(2S)-2-amino-6-[[(2S)-2-amino-6-[[(4S)-4-carboxy-4-(19-carboxynonadecanoylamino)butanoyl]amino]hexanoyl]amino]hexanoyl]-RAA-Aib-EFVQWLLEGGPSSGAPPPS-NH2) [Compound No. 37] | 1.8 pM | 11.8 pM | 10.8 pM |
| H[Aib]HGTFTSDYSIYLEKKYA[Aib]EFVQWLLEGGPSSGAPPPS-NH2 (not fully specified (residue 16); printed as H-Aib-HGTFTSDYSIYLE-K[(2S)-2-amino-6-[[(2S)-2-amino-6-[[(4S)-4-carboxy-4-(17-carboxyheptadecanoylamino)butanoyl]amino]hexanoyl]amino]hexanoyl]-KYA-Aib-EFVQWLLEGGPSSGAPPPS-NH2) [Compound No. 38] | 2.8 pM | 6.4 pM | 13.1 pM |
| H[Aib]HGTFTSDYSIYLEKKYA[Aib]EFVQWLLEGGPSSGAPPPS-NH2 (not fully specified (residue 16); printed as H-Aib-HGTFTSDYSIYLE-K[2-[2-[2-[[2-[2-[2-[[(4S)-4-carboxy-4-(19-carboxynonadecanoylamino)butanoyl]amino]ethoxy]ethoxy]acetyl]amino]ethoxy]ethoxy]acetyl]-KYA-Aib-EFVQWLLEGGPSSGAPPPS-NH2) [Compound No. 39] | 4.4 pM | 12.9 pM | 17.9 pM |
| H[Aib]HGTFTSDYSYYLEKQAA[Aib]EFVQWLLEGGPSSGAPPPS-NH2 (not fully specified (residue 16); printed as H-Aib-HGTFTSDYSYYLE-K[2-[2-[2-[[2-[2-[2-[[(4S)-4-carboxy-4-(19-carboxynonadecanoylamino)butanoyl]amino]ethoxy]ethoxy]acetyl]amino]ethoxy]ethoxy]acetyl]-QAA-Aib-EFVQWLLEGGPSSGAPPPS-NH2) [Compound No. 40] | 3.7 pM | 36.4 pM | 5.7 pM |
| H[Aib]HGTFTSDYSILLEKKYA[Aib]EFVQWLLEGGPSSGAPPPS-NH2 (not fully specified (residue 16); printed as H-Aib-HGTFTSDYSILLE-K[(2S)-2-amino-6-[[(2S)-2-amino-6-[[(4S)-4-carboxy-4-(19-carboxynonadecanoylamino)butanoyl]amino]hexanoyl]amino]hexanoyl]-KYA-Aib-EFVQWLLEGGPSSGAPPPS-NH2) [Compound No. 41] | 4.3 pM | 7.6 pM | 9.3 pM |
| H[Aib]HGTFTSDYSYLLEKQAA[Aib]EFVQWLLEGGPSSGAPPPS-NH2 (not fully specified (residue 16); printed as H-Aib-HGTFTSDYSYLLE-K[(2S)-2-amino-6-[[(2S)-2-amino-6-[[(4S)-4-carboxy-4-(19-carboxynonadecanoylamino)butanoyl]amino]hexanoyl]amino]hexanoyl]-QAA-Aib-EFVQWLLEGGPSSGAPPPS-NH2) [Compound No. 42] | 1.9 pM | 8 pM | 3.8 pM |
| H[Aib]HGTFTSDYSILLEKQAA[Aib]EFVQWLLEGGPSSGAPPPS-NH2 (not fully specified (residue 16); printed as H-Aib-HGTFTSDYSILLE-K[(2S)-2-amino-6-[[(2S)-2-amino-6-[[(4S)-4-carboxy-4-(19-carboxynonadecanoylamino)butanoyl]amino]hexanoyl]amino]hexanoyl]-QAA-Aib-EFVQWLLEGGPSSGAPPPS-NH2) [Compound No. 43] | 3 pM | 10.8 pM | 2.8 pM |
| H[Aib]HGTFTSDYSIYLEKQAA[Aib]EFVQWLLEGGPSSGAPPPS-NH2 (not fully specified (residue 16); printed as H-Aib-HGTFTSDYSIYLE-K[2-[2-[2-[[2-[2-[2-[[(4S)-4-carboxy-4-(19-carboxynonadecanoylamino)butanoyl]amino]ethoxy]ethoxy]acetyl]amino]ethoxy]ethoxy]acetyl]-QAA-Aib-EFVQWLLEGGPSSGAPPPS-NH2) [Compound No. 44] | 1.8 pM | 45.2 pM | 6.1 pM |
| H[Aib]HGTFTSDYSILLEKQAA[Aib]EFVQWLLEGGPSSGAPPPS-NH2 (not fully specified (residue 16); printed as H-Aib-HGTFTSDYSILLE-K[2-[2-[2-[[2-[2-[2-[[(4S)-4-carboxy-4-(19-carboxynonadecanoylamino)butanoyl]amino]ethoxy]ethoxy]acetyl]amino]ethoxy]ethoxy]acetyl]-QAA-Aib-EFVQWLLEGGPSSGAPPPS-NH2) [Compound No. 45] | 2.4 pM | 6.8 pM | 1.9 pM |
| Y[Aib]QGTFTSDYSILLEKQAA[Aib]EFVQWLLEGGPSSGAPPPS-NH2 (not fully specified (residue 16); printed as Y-Aib-QGTFTSDYSILLE-K[(2S)-2-amino-6-[[(2S)-2-amino-6-[[(4S)-4-carboxy-4-(19-carboxynonadecanoylamino)butanoyl]amino]hexanoyl]amino]hexanoyl]-QAA-Aib-EFVQWLLEGGPSSGAPPPS-NH2) [Compound No. 46] | 8.3 pM | 25 pM | 3 pM |
| Y[Aib]QGTFTSDYSYYLEKQAA[Aib]EFVQWLLEGGPSSGAPPPS-NH2 (not fully specified (residue 16); printed as Y-Aib-QGTFTSDYSYYLE-K[(2S)-2-amino-6-[[(2S)-2-amino-6-[[(4S)-4-carboxy-4-(19-carboxynonadecanoylamino)butanoyl]amino]hexanoyl]amino]hexanoyl]-QAA-Aib-EFVQWLLEGGPSSGAPPPS-NH2) [Compound No. 47] | 5.6 pM | 28.7 pM | 14.9 pM |
| Y[Aib]QGTFTSDYSYLLEKQAA[Aib]EFVQWLLEGGPSSGAPPPS-NH2 (not fully specified (residue 16); printed as Y-Aib-QGTFTSDYSYLLE-K[(2S)-2-amino-6-[[(2S)-2-amino-6-[[(4S)-4-carboxy-4-(19-carboxynonadecanoylamino)butanoyl]amino]hexanoyl]amino]hexanoyl]-QAA-Aib-EFVQWLLEGGPSSGAPPPS-NH2) [Compound No. 48] | 10.1 pM | 12.6 pM | 9.2 pM |
| H[Aib]HGTFTSDYSILLEKQAAEEFVQWLLEGGPSSGAPPPS-NH2 (not fully specified (residue 16); printed as H-Aib-HGTFTSDYSILLE-K[(2S)-2-amino-6-[[(2S)-2-amino-6-[[(4S)-4-carboxy-4-(19-carboxynonadecanoylamino)butanoyl]amino]hexanoyl]amino]hexanoyl]-QAAEEFVQWLLEGGPSSGAPPPS-NH2) [Compound No. 49] | 1.4 pM | 3.5 pM | 2.1 pM |
| H[Aib]HGTFTSDYSILLEKQAAEEFVQWLLEGGPSSGAPPPS-OH (not fully specified (residue 16); printed as H-Aib-HGTFTSDYSILLE-K[(2S)-2-amino-6-[[(2S)-2-amino-6-[[(4S)-4-carboxy-4-(19-carboxynonadecanoylamino)butanoyl]amino]hexanoyl]amino]hexanoyl]-QAAEEFVQWLLEGGPSSGAPPPS-OH) [Compound No. 50] | 1 pM | 18.5 pM | 1.9 pM |
| H[Aib]HGTFTSDYSILLEKQAAEEFVQWLLEGGPSSGAPPPS-OH (not fully specified (residue 16); printed as H-Aib-HGTFTSDYSILLE-K[(2S)-2-amino-6-[[(2S)-2-amino-6-[[(4S)-4-carboxy-4-(17-carboxyheptadecanoylamino)butanoyl]amino]hexanoyl]amino]hexanoyl]-QAAEEFVQWLLEGGPSSGAPPPS-OH) [Compound No. 51] | 0.7 pM | 79.9 pM | 1.8 pM |
